The values below come from patent US20090075889A1 (YEDA RESEARCH AND DEVELOPMENT, published 2009).

First the molecules themselves.
B1: IREN (other)
chain: MSGSQNNDKRQFLLERLLDAVKQCQIRFGGRKEIASDSDSRVTCLCAQFEAVLQHGLKRSRGLALTAAAIKQAAGFASKTETEPVFWYYVKEVLNKHELQRFYSLRHIASDVGRGRAWLRCALNEHSLERYLHMLLADRCRLSTFYEDWSFVMDEERSSMLPTMAAGLNSILFAINIDNKDLNGQSKFAPTVSDLLKESTQNVTSLLKESTQGVSSLFREITASSAVSILIKPEQETDPLPVVSRNVSADAKCKKERKKKKKVTNIISFDDEEDEQNSGDVFKKTPGAGESSEDNSDRSSVNIMSAFESPFGPNSNGSQSSNSWKIDSLSLNGEFGYQKLDVKSIDDEDVDENEDDVYGNSSGRKHRGHSESPEKPLEGNTCLSQMHSWAPLKVLHNDSDILFPVSGVGSYSPADAPLGSLENGTGPEDHVLPDPGLRYSVEASSPGHGSPLSSLLPSASVPESMTISELRQATVAMMNRKDELEEENRSLRNLLDGEMEHSAALRQEVDTLKRKVAEQEERQGMKVQALASYLCYFVRRF
notes: Tested in yeast two-hybrid as a hybrid protein; the fusion partner is not included in the chain; also called IκB REgulator; IREN protein
B2: TRAF2225-501 (other, human, UniProt Q12933 225-501, looked up)
chain: ETVEGEKQQEHEVQWLREHLAMLLSSVLEAKPLLGDQSHAGSELLQRCESLEKKTATFENIVCVLNREVERVAMTAEACSRQHRLDQDKIEALSSKVQQLERSIGLKDLAMADLEQKVLEMEASTYDGVFIWKISDFARKRQEAVAGRIPAIFSPAFYTSRYGYKMCLRIYLNGDGTGRGTHLSLFFVVMKGPNDALLRWPFNQKVTLMLLDQNNREHVIDAFRPDVTSSSFQRPVNDMNIASGCPLFCPVSKMEAKNSYVRDDAIFIKAIVDLTGL
notes: range 225-501; Two-hybrid bait construct; also called C-terminal part of TRAF2, amino acids 225 to 501; C-terminal construct comprising the TRAF domain
B3: IREN198-388 (other)
chain: ESTQNVTSLLKESTQGVSSLFREITASSAVSILIKPEQETDPLPVVSRNVSADAKCKKERKKKKKVTNIISFDDEEDEQNSGDVFKKTPGAGESSEDNSDRSSVNIMSAFESPFGPNSNGSQSSNSWKIDSLSLNGEFGYQKLDVKSIDDEDVDENEDDVYGNSSGRKHRGHSESPEKPLEGNTCLSQMHS
notes: Two-hybrid prey construct
B4: IREN 10B (other)
chain: MSGSQNNDKRQFLLERLLDAVKQCQIRFGGRKEIASDSDSRVTCLCAQFEAVLQHGLKRSRGLALTAAAIKQAAGFASKTETEPVFWYYVKEVLNKHELQRFYSLRHIASDVGRGRAWLRCALNEHSLERYLHMLLADRCRLSTFYEDWSFVMDEERSSMLPTMAAGLNSILFAINIDNKDLNGQSKFAPTVSDLLKESTQNVTSLLKESTQGVSSLFREITASSAVSILIKPEQETDPLPVVSRNVSADAKCKKERKKKKKVTNIISFDDEEDEQNSGDVFKKTPGAGESSEDNSDRSSVNIMSAFESPFGPNSNGSQSSNSWKIDSLSLNGEFGYQKLDVKSIDDEDVDENEDDVYGNSSGRKHRGHSESPEKPLEGNTCLSQMHSWAPLKVLHNDSDILFPVSGVGSYSPADAPLGSLENGTGPEDHVLPDPGLRYSVEASSPGHGSPLSSLLPSASVPESMTISELRQATVAMMNRKDELEEENRSLRNLLDGEMEHSAALRQEVDTLKRKVAEQEERQGMKVQALARENEVLKVQLKKYVGAVQMLKREGQTAEVPNLWSVDGEVTVAEQKPGEIAEELASSYERKLIEVAEMHGELIEFNERLHRALVAKEALVSQMRQELIDLRGPVPGDLSQTSEDQSLSDFEISNRALINVWIPSVFLRGKAANAFHVYQVYIRIKDDEWNIYRRYTEFRSLHHKLQNKYPQVRAYNFPPKKAIGNKDAKFVEERRKQLQNYLRSVMNKVIQMVPEFAASPKKETLIQLMPFFVDITPPGEPVNSRPKAASRFPKLSRGQPRETRNVEPQSGDL
notes: Splice isoform of IREN; Used as both bait and prey in yeast two-hybrid; also called clone 10B
B5: IREN198-541 (other)
chain: ESTQNVTSLLKESTQGVSSLFREITASSAVSILIKPEQETDPLPVVSRNVSADAKCKKERKKKKKVTNIISFDDEEDEQNSGDVFKKTPGAGESSEDNSDRSSVNIMSAFESPFGPNSNGSQSSNSWKIDSLSLNGEFGYQKLDVKSIDDEDVDENEDDVYGNSSGRKHRGHSESPEKPLEGNTCLSQMHSWAPLKVLHNDSDILFPVSGVGSYSPADAPLGSLENGTGPEDHVLPDPGLRYSVEASSPGHGSPLSSLLPSASVPESMTISELRQATVAMMNRKDELEEENRSLRNLLDGEMEHSAALRQEVDTLKRKVAEQEERQGMKVQALASYLCYFVRRF
notes: Two-hybrid prey construct; also called N-terminal deletion mutant of IREN; IRENΔN
B6: human TRAF2 (other, UniProt Q12933 1-501, looked up)
chain: MAAASVTPPGSLELLQPGFSKTLLGTKLEAKYLCSACRNVLRRPFQAQCGHRYCSFCLASILSSGPQNCAACVHEGIYEEGISILESSSAFPDNAARREVESLPAVCPSDGCTWKGTLKEYESCHEGRCPLMLTECPACKGLVRLGEKERHLEHECPERSLSCRHCRAPCCGADVKAHHEVCPKFPLTCDGCGKKKIPREKFQDHVKTCGKCRVPCRFHAIGCLETVEGEKQQEHEVQWLREHLAMLLSSVLEAKPLLGDQSHAGSELLQRCESLEKKTATFENIVCVLNREVERVAMTAEACSRQHRLDQDKIEALSSKVQQLERSIGLKDLAMADLEQKVLEMEASTYDGVFIWKISDFARKRQEAVAGRIPAIFSPAFYTSRYGYKMCLRIYLNGDGTGRGTHLSLFFVVMKGPNDALLRWPFNQKVTLMLLDQNNREHVIDAFRPDVTSSSFQRPVNDMNIASGCPLFCPVSKMEAKNSYVRDDAIFIKAIVDLTGL
notes: range 1-501; the fusion partner is not included in the chain; also called hTRAF2; full length TRAF2

Data set [1] concerns the molecule itself. The data set is described as follows: yeast two-hybrid.
In data set [2] the target is B1. Kind of data set: yeast two-hybrid, bait TRAF2225-501, prey IREN. The method, then:
(§1) Positive clones picked up in the two hybrid screen were subjected to lacZ color development test in SFY526 yeast cells, following Clontech Laboratories' manual (for details see above mentioned publications and patent applications). In brief, transformants were allowed to grow at 30° C. for 2-4 days until reaching about 2 mm in diameter, then were transferred onto Whatman filters. The filters went through a freeze/thaw treatment in order to permeabilize the cells, then soaked in a buffer (16.1 mg/ml Na₂HP0₄ 7H₂0; 5.5 mg/ml NaH₂P0₄′H₂0; 0.75 mg/ml KCl; 0.75 mg/ml MgS0₄′7H₂O, pH=7) containing 0.33 mg/ml X-gal and 0.35 mM β-mercaptoethanol. Colonies were monitored for development of blue color which is an indication for induction of β-galactosidase.
(§2) In order to narrow down the region on the TRAF2 molecule which interacts with IREN two additional constructs were made. One construct comprising the N-terminal part of the TRAF2 molecule, amino acids 1 to 224 designated RING₁₋₂₂₄ comprising the Ring finger and the zinc finger motifs. The second construct included only the C-terminal part of TRAF2, amino acids 225 to 501, covering the “TRAF-domain” as well as an additional 42 amino acids. These two constructs were used as baits in two hybrid tests.

For data set [3], the target named is B6. Kind of data set: yeast two-hybrid, bait TRAF2, prey IREN198-388. The protocol:
as §1, §2

Data set [4] concerns the molecule itself. The data set is described as follows: yeast two-hybrid, bait IREN 10B, prey IREN 10B.
The target in data set [5] is B6. The data set is described as follows: yeast two-hybrid, bait TRAF2, prey IREN198-541. The protocol: as §1, §2
Data set [6] has as its target B4. Kind of data set: yeast two-hybrid, bait TRAF2, prey IREN 10B.
The target in data set [7] is B1. The data set is described as follows: yeast two-hybrid, bait TRAF2, prey IREN. The method, then: as §1, §2

Take B1: the binding result in data set [1] was “no binding”.

As for B2, the binding result in data set [2] is “binds”.

B3: the binding result in data set [3] is “binds”.

With B4, the binding result in data set [4] is “binds”.

On to B5, for which, in data set [5], the binding result is listed as “binds”.

In the case of B6, the binding result in data set [6] and in data set [7] was “binds” throughout.
